Assay results from article PMC314469, “Protein Interaction Networks by Proteome Peptide Scanning” (PLoS Biology, 2004).

T1: Yfr024 SH3 (LSB3_YEAST), P43603
T1 chain: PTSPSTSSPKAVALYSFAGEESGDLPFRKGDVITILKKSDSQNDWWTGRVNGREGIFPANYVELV

T2: Boi2 SH3 (BOI2_YEAST), P39969
T2 chain: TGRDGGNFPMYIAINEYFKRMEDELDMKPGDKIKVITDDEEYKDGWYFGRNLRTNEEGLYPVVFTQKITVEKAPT

T3: Rvs167 SH3 (RV167_YEAST), P39743
T3 chain: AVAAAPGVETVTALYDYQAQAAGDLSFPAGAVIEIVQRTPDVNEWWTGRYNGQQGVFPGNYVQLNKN

T4: Yhr016c SH3 (YSC84_YEAST), P32793
T4 chain: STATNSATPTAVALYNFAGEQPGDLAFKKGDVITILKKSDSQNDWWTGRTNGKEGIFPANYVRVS

T5: Boi1 SH3 (BOI1_YEAST), P38041
T5 chain: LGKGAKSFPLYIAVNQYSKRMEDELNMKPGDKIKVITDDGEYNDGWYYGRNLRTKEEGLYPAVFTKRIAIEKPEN


Target: T1, Yfr024 SH3 (LSB3_YEAST), P43603
Experiment: SPOT array

normalised SPOT signal, Boehringer light units (BLU); mean over the file's lines of this peptide	Binder
136	VPDPSTPSKPNLEV [YML016C 62-75]
4140	VQTPHVPDRPPSQL [YPR104C 731-744]
23000	VPRPSPPIRRKSST [YNL106C 1070-1083]
861	VTKPVVPKKTKKSA [YLR087C 319-332]
1200	VPEPSKPSRLLLVR [YNL034W 549-562]
2650	VPSPIVPNKMRKQL [YKL052C 214-227]
141	VPSPGLPEKVNEKS [YLR119W 34-47]
323	VSPPFFPEKELNNR [YKR010C 454-467]
1890	VTTPLKPKRLAIPI [YJR083C 47-60]
2650	VTQPITPVKKRRSE [YNL230C 264-277]

More lines, now with the values behind:

Binder	normalised SPOT signal, Boehringer light units (BLU); mean over the file's lines of this peptide
VSIPFDPSKDTFDH [YEL031W 741-754]	0
VTVPKLPFKLAVNK [YBR040W 181-194]	3360
VSTPPVPKKFQEIF [YDL107W 9-22]	695
VTLPISPSRASISF [YGL235W 70-83]	951
VNTPREPVRSSSKI [YJL076W 1015-1028]	910
VTLPTGPAKIIWEK [YHR007C 510-523]	38.2
VPPPNVPKKDKREV [YBR058C 659-672]	980
VSDPYVPTRNTFNY [YDL020C 142-155]	814
VQQPEDPLRVLGEY [YDR469W 143-156]	46.1

Target: T2, Boi2 SH3 (BOI2_YEAST), P39969
Experiment: SPOT array

normalised SPOT signal, Boehringer light units (BLU); mean over the file's lines of this peptide	Binder
12.4	VPDPSTPSKPNLEV [YML016C 62-75]
55.9	VQTPHVPDRPPSQL [YPR104C 731-744]
232	VPRPSPPIRRKSST [YNL106C 1070-1083]
19	VTKPVVPKKTKKSA [YLR087C 319-332]
17	VPEPSKPSRLLLVR [YNL034W 549-562]
126	VPSPIVPNKMRKQL [YKL052C 214-227]
25.5	VPSPGLPEKVNEKS [YLR119W 34-47]
25.6	VSPPFFPEKELNNR [YKR010C 454-467]
20.4	VTTPLKPKRLAIPI [YJR083C 47-60]
90	VTQPITPVKKRRSE [YNL230C 264-277]

Second part, the binder before the results:

Binder	normalised SPOT signal, Boehringer light units (BLU); mean over the file's lines of this peptide
VSIPFDPSKDTFDH [YEL031W 741-754]	34.1
VTVPKLPFKLAVNK [YBR040W 181-194]	69.6
VSTPPVPKKFQEIF [YDL107W 9-22]	35.5
VTLPISPSRASISF [YGL235W 70-83]	33.4
VNTPREPVRSSSKI [YJL076W 1015-1028]	30.9
VTLPTGPAKIIWEK [YHR007C 510-523]	19.3
VPPPNVPKKDKREV [YBR058C 659-672]	17.8
VSDPYVPTRNTFNY [YDL020C 142-155]	23.2
VQQPEDPLRVLGEY [YDR469W 143-156]	16.6

Target: T3, Rvs167 SH3 (RV167_YEAST), P39743
Experiment: SPOT array

normalised SPOT signal, Boehringer light units (BLU); mean over the file's lines of this peptide	Binder
19.5	VPDPSTPSKPNLEV [YML016C 62-75]
52.6	VQTPHVPDRPPSQL [YPR104C 731-744]
3250	VPRPSPPIRRKSST [YNL106C 1070-1083]
1	VTKPVVPKKTKKSA [YLR087C 319-332]
23.1	VPEPSKPSRLLLVR [YNL034W 549-562]
202	VPSPIVPNKMRKQL [YKL052C 214-227]
-0	VPSPGLPEKVNEKS [YLR119W 34-47]
32.6	VSPPFFPEKELNNR [YKR010C 454-467]
17.7	VTTPLKPKRLAIPI [YJR083C 47-60]
56.8	VTQPITPVKKRRSE [YNL230C 264-277]

The next lines start with the binder.

Binder	normalised SPOT signal, Boehringer light units (BLU); mean over the file's lines of this peptide
VSIPFDPSKDTFDH [YEL031W 741-754]	72.7
VTVPKLPFKLAVNK [YBR040W 181-194]	50.5
VSTPPVPKKFQEIF [YDL107W 9-22]	53.6
VTLPISPSRASISF [YGL235W 70-83]	25.8
VNTPREPVRSSSKI [YJL076W 1015-1028]	69.7
VTLPTGPAKIIWEK [YHR007C 510-523]	24.1
VPPPNVPKKDKREV [YBR058C 659-672]	124
VSDPYVPTRNTFNY [YDL020C 142-155]	60.9
VQQPEDPLRVLGEY [YDR469W 143-156]	37.1

Target: T4, Yhr016c SH3 (YSC84_YEAST), P32793
Experiment: SPOT array

normalised SPOT signal, Boehringer light units (BLU); mean over the file's lines of this peptide	Binder
157	VPDPSTPSKPNLEV [YML016C 62-75]
845	VQTPHVPDRPPSQL [YPR104C 731-744]
3880	VPRPSPPIRRKSST [YNL106C 1070-1083]
136	VTKPVVPKKTKKSA [YLR087C 319-332]
425	VPEPSKPSRLLLVR [YNL034W 549-562]
191	VPSPIVPNKMRKQL [YKL052C 214-227]
217	VPSPGLPEKVNEKS [YLR119W 34-47]
97.4	VSPPFFPEKELNNR [YKR010C 454-467]
364	VTTPLKPKRLAIPI [YJR083C 47-60]
128	VTQPITPVKKRRSE [YNL230C 264-277]

More lines, now with the values behind:

Binder	normalised SPOT signal, Boehringer light units (BLU); mean over the file's lines of this peptide
VSIPFDPSKDTFDH [YEL031W 741-754]	70.3
VTVPKLPFKLAVNK [YBR040W 181-194]	230
VSTPPVPKKFQEIF [YDL107W 9-22]	55.4
VTLPISPSRASISF [YGL235W 70-83]	79.2
VNTPREPVRSSSKI [YJL076W 1015-1028]	99.4
VTLPTGPAKIIWEK [YHR007C 510-523]	143
VPPPNVPKKDKREV [YBR058C 659-672]	206
VSDPYVPTRNTFNY [YDL020C 142-155]	268
VQQPEDPLRVLGEY [YDR469W 143-156]	65.5

Target: T5, Boi1 SH3 (BOI1_YEAST), P38041
Experiment: SPOT array

normalised SPOT signal, Boehringer light units (BLU); mean over the file's lines of this peptide	Binder
16.2	VPDPSTPSKPNLEV [YML016C 62-75]
53.1	VQTPHVPDRPPSQL [YPR104C 731-744]
494	VPRPSPPIRRKSST [YNL106C 1070-1083]
164	VTKPVVPKKTKKSA [YLR087C 319-332]
61.9	VPEPSKPSRLLLVR [YNL034W 549-562]
530	VPSPIVPNKMRKQL [YKL052C 214-227]
80.3	VPSPGLPEKVNEKS [YLR119W 34-47]
41.2	VSPPFFPEKELNNR [YKR010C 454-467]
122	VTTPLKPKRLAIPI [YJR083C 47-60]
442	VTQPITPVKKRRSE [YNL230C 264-277]

The next lines start with the binder.

Binder	normalised SPOT signal, Boehringer light units (BLU); mean over the file's lines of this peptide
VSIPFDPSKDTFDH [YEL031W 741-754]	105
VTVPKLPFKLAVNK [YBR040W 181-194]	0
VSTPPVPKKFQEIF [YDL107W 9-22]	62.2
VTLPISPSRASISF [YGL235W 70-83]	52.6
VNTPREPVRSSSKI [YJL076W 1015-1028]	75.8
VTLPTGPAKIIWEK [YHR007C 510-523]	94.8
VPPPNVPKKDKREV [YBR058C 659-672]	294
VSDPYVPTRNTFNY [YDL020C 142-155]	174
VQQPEDPLRVLGEY [YDR469W 143-156]	24.5
